Measurements published in paper PMC13046434 (European journal of pharmacology, 2025).
Where two headings read alike, the source gives them in different places.

Columns and labels:
WT hNET [1] = target: T1, WT hNET (Homo sapiens, UniProt P23975); format: binding; design: expressed in transfected cells; host or cells: CHO cells, transient transfection with Lipofectamine 2000
N198A hNET [2] = target: T2, N198A hNET (Homo sapiens, UniProt P23975, N198A); format: binding; design: expressed in transfected cells; host or cells: CHO cells, transient transfection with Lipofectamine 2000
T2 sequence (P23975 whole entry N198A): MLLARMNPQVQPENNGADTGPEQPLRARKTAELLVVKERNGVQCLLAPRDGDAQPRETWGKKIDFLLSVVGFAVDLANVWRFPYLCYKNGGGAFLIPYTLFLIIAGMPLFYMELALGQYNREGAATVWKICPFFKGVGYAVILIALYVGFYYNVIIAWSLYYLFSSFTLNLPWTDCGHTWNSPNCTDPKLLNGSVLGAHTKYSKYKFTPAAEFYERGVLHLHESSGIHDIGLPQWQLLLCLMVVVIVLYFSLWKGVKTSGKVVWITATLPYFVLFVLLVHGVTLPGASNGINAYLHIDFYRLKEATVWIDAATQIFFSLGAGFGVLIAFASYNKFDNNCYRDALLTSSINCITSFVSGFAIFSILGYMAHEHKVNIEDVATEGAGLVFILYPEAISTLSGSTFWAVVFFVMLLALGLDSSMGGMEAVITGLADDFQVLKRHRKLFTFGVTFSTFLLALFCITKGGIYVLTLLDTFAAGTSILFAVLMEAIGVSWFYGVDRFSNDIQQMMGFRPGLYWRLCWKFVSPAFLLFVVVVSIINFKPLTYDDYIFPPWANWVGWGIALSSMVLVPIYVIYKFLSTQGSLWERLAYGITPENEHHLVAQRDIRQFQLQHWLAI

E223A hNET [3] = target: T3, E223A hNET (Homo sapiens, UniProt P23975, E223A); format: binding; design: expressed in transfected cells; host or cells: CHO cells, transient transfection with Lipofectamine 2000
T3 sequence (P23975 whole entry E223A): as the sequence (P23975 whole entry N198A) above, with A198N, E223A counted along it

WT hNET [4] = target: T1, WT hNET
N198A hNET [5] = target: T2, N198A hNET
E223A hNET [6] = target: T3, E223A hNET
WT hNET [7] = target: T1, WT hNET; test: Ki of rTat1-86 inhibiting [3H]DA uptake in WT hNET cell suspensions; format: cell-based; design: expressed in transfected cells; host or cells: CHO cells, transient transfection with Lipofectamine 2000
Description: To determine the inhibitor constant (Ki) of rTat1-86 inhibiting DA uptake in WT hNET, cells in 10 cm plates were cultured and transfected with WT hNET as described above. All reagents were made in 1 x KRH containing 0.1 % Protease Inhibitor Cocktail 1 (P2850, Sigma-Aldrich) and 0.1 % Protease Inhibitor Cocktail (P8340, Sigma-Aldrich). Cells were detached and harvested as described above. The cell suspensions were then incubated with a range of rTat1-86 (0.25–140 nM, final concentrations) for 20 min at room temperature. […] The reaction was then terminated as described above.

WT hNET [8] = target: T1, WT hNET; test: kinetic analysis of [3H]DA uptake, WT hNET; format: cell-based; design: expressed in transfected cells; host or cells: CHO cells, transient transfection with Lipofectamine 2000
Description: (§1) The kinetic parameters of [^3H]DA uptake, maximal velocity (Vmax) and Michalis-Menton constant (Km), were determined in CHO cells transiently transfected with WT hNET and its mutants seeded in 24 well plates as described above. […] After the 10-min incubation period, cells were incubated for 8 min at room temperature with a series of one of six concentrations of mixed [^3H]DA (0.001–1.0 μM, final concentration). The reaction was terminated by the removal of solution from the wells followed by three rapid washes of ice-cold 1 x KRH. Cells were lysed with 500 μL of 1 % SDS for 1 h and radioactivity measured as described above. Specific hNET-mediated DA uptake was calculated by subtracting the nonspecific uptake (in the presence of desipramine and nomifensine) from the total uptake.
Results are presented as mean ± SEM. […] Kinetic parameters (Vmax and Km) were determined from saturation curves by nonlinear regression analysis using a one-site model with variable slope. IC50 values for the substrate and inhibitors for [^3H]DA uptake were determined from nonlinear regression analysis inhibition curves using a one-site model with variable slope. […] Significant differences between samples were analyzed with independent ANOVAs followed by post-hoc tests, which is indicated in the Results Section of the efflux experiments. […]

N198A hNET [9] = target: T2, N198A hNET; test: kinetic analysis of [3H]DA uptake, N198A hNET; format: cell-based; design: expressed in transfected cells; host or cells: CHO cells, transient transfection with Lipofectamine 2000
Description: as §1
(§2) Results are presented as mean ± SEM. The number of n represents the number of independent experiments from each experiment group. Kinetic parameters (Vmax and Km) were determined from saturation curves by nonlinear regression analysis using a one-site model with variable slope. IC50 values for the substrate and inhibitors for [^3H]DA uptake were determined from nonlinear regression analysis inhibition curves using a one-site model with variable slope. GraphPad Prism (version 10.1.2.) was used to calculate the kinetic parameters and IC50 values for substrate and inhibitors inhibiting [^3H]DA uptake or [^3H] WIN35428. For any experiment involving comparisons between unpaired samples, unpaired Student’s t tests were used to determine any difference between parameters between WT hNET and its mutants. Log-transformed IC50 values were used for statistical comparisons. One-way ANOVA comparisons with repeat measurements were used for analyzing the [^3H]DA and [^3H]MPP^+ efflux data. Significant differences between samples were analyzed with independent ANOVAs followed by post-hoc tests, which is indicated in the Results Section of the efflux experiments. All statistical analyses were performed using the IBM SPSS Statistics version 29 and returned values of at least p < 0.05 were considered significant.

E223A hNET [10] = target: T3, E223A hNET; test: kinetic analysis of [3H]DA uptake, E223A hNET; format: cell-based; design: expressed in transfected cells; host or cells: CHO cells, transient transfection with Lipofectamine 2000
Description: as §1, §2

N198A hNET [11] = target: T2, N198A hNET; test: basal [3H]DA and [3H]MPP+ efflux, N198A hNET; format: cell-based; design: expressed in transfected cells; host or cells: CHO cells, transient transfection with Lipofectamine 2000; details: across 90 min, preloaded 50 nM, 20 min
Description: (§3) To determine whether N198A or E223A hNET alters transporter conformational transients, [^3H]DA or [^3H]MPP^+ efflux was performed based on our previous studies ([Midde et al., 2015]; [Quizon et al., 2021]). Intact CHO cells in precoated 24-well plates transfected with WT hNET or its mutants were preloaded with [^3H]DA (50 nM final concentration) for 20 min or [^3H]MPP^+ (5 nM final concentration) for 30 min at room temperature. After the preloading period, cells were washed twice with 1 x KRH buffer before collecting fractional release samples. Total uptake of [^3H]DA or [^3H]MPP^+ at the zero time point was estimated from four wells per genotype that were lysed immediately with 1 % SDS after preloading period. Nonspecific uptake of [^3H]DA or [^3H]MPP^+ at zero time point was estimated from four wells per genotype that were incubated with the hNET inhibitors desipramine and nomifensine (100 μM and 10 μM final concentration, respectively) and lysed immediately with 1 % SDS after the preloading period. To collect fractional release, 500 μL of KRH buffer was added into a set of four wells and transferred to scintillation vials after 0 min as the initial fractional efflux. Fresh 500 μL of 1 x KRH buffer was added into the wells and incubated for 10 min then transferred to scintillation vials. Fractional efflux was collected every 10 min for 90 min ([^3H]DA) or 110 min ([^3H]MPP^+). […]

E223A hNET [12] = target: T3, E223A hNET; test: basal [3H]DA and [3H]MPP+ efflux, E223A hNET; format: cell-based; design: expressed in transfected cells; host or cells: CHO cells, transient transfection with Lipofectamine 2000; details: across 90 min, preloaded 50 nM, 20 min
Description: as §3

[13] = per 10^6 cells, DA 0.001-1.0 μM

T1 sequence (P23975 whole entry): as the sequence (P23975 whole entry N198A) above, with A198N counted along it

For `COC(=O)[C@H]1[C@@H](c2ccc(F)cc2)C[C@@H]2CC[C@H]1N2C` [[^3H]WIN35428], the “specific [3H]WIN35428 binding” value (WT hNET [1]) was 14083 ± 1198 DPM, the “specific [3H]WIN35428 binding normalized as a percentage of WT hNET” value (WT hNET [1]) was 100 ± 8.5% and the “specific [3H]WIN35428 binding” value (N198A hNET [2]) was 11361 ± 652 DPM. For the same compound, the “specific [3H]WIN35428 binding normalized as a percentage of WT hNET” value (N198A hNET [2]) was 80.67 ± 4.6%, the “specific [3H]WIN35428 binding” value (E223A hNET [3]) was 11806 ± 567 DPM and the “specific [3H]WIN35428 binding normalized as a percentage of WT hNET” value (E223A hNET [3]) was 83.83 ± 4.0.
“rTat1-86: recombinant HIV-1 transactivator of transcription (rTat1-86), purchased from ImmunoDX” was tested, and the “reduction of specific [3H]DA uptake relative to control” value (WT hNET [4]; 8.75 nM rTat1-86) was 24.2%, the “specific [3H]DA uptake with Tat, direct counts” value (“specific [3H]DA uptake with Tat” for short) (WT hNET [4]; 8.75 nM rTat1-86 (without Tat: 2778 ± 240)) was 2106 ± 191 DPM and the “reduction of specific [3H]DA uptake relative to control” value (WT hNET [4]; 140 nM rTat1-86) was 34.22%. For the same compound, the “specific [3H]DA uptake with Tat” value (WT hNET [4]; 140 nM rTat1-86 (without Tat: 1870 ± 238)) was 1230 ± 163 DPM, the “reduction of specific [3H]DA uptake relative to control” value (WT hNET [4]; 140 nM rTat1-86, listed as recombinant Tat1-86) was 34% and the “Tat-induced reduction of [3H]DA uptake compared to its control” value (from here on “Tat-induced reduction of [3H]DA uptake”) (N198A hNET [5]; 8.75 nM rTat1-86) was “attenuated”. The “specific [3H]DA uptake with Tat” value (N198A hNET [5]; 8.75 nM rTat1-86 (without Tat: 1934 ± 210)) was 1883 ± 175 DPM, the “Tat-induced reduction of [3H]DA uptake” value (N198A hNET [5]; 140 nM rTat1-86) was “attenuated” and the “specific [3H]DA uptake with Tat” value (N198A hNET [5]; 140 nM rTat1-86 (without Tat: 912 ± 212)) was 954 ± 213 DPM. The “Tat-induced reduction of [3H]DA uptake” value (E223A hNET [6]; 8.75 nM rTat1-86) was “attenuated”, the “specific [3H]DA uptake with Tat” value (E223A hNET [6]; 8.75 nM rTat1-86 (without Tat: 2113 ± 237)) was 1950 ± 215 DPM and the “reduction of specific [3H]DA uptake relative to control” value (E223A hNET [6]; 140 nM rTat1-86) was 26.98%. The “specific [3H]DA uptake with Tat” value (E223A hNET [6]; 140 nM rTat1-86 (without Tat: 1711 ± 261)) was 1206 ± 239 DPM, the “predicted occupancy of hNET molecules” value (WT hNET [7]; 8.75 nM rTat1-86, approximately 2.6-fold the Ki) was ~ 72% and the “predicted occupancy of hNET molecules” value (WT hNET [7]; 140 nM rTat1-86, approximately 41.2-fold the Ki) was ~ 98%. For the same compound, the “plateau of Tat's inhibitory effect on DA uptake” value (WT hNET [7]; WT hNET, Tat concentrations from 8.75 nM to 140 nM) was 65.2% and the Ki (WT hNET [7]; WT hNET, rTat1-86 0.25-140 nM, 20 min, 50 nM [3H]DA, read-out: Ki for inhibiting hNET-mediated DA uptake) was 3.4 nM.
With `[3H]c1c([3H])c(CCN)c([3H])c(O)c1O` [[^3H]DA, 3,4-ethyl-2[N-P^3PH]dihydroxyphenylethylamine] the “Vmax of [3H]DA uptake” value (WT hNET [8]; [13]) was 525.4 ± 89.8 fmol/min/10^6, the “reduction in Vmax of [3H]DA uptake compared to WT hNET” value (N198A hNET [9]) was 82.6% and the “Vmax of [3H]DA uptake” value (N198A hNET [9]; [13]) was 91.4 ± 16.4 fmol/min/10^6. For the same compound, the “reduction in Vmax of [3H]DA uptake compared to WT hNET” value (E223A hNET [10]) was 71.2%, the “Vmax of [3H]DA uptake” value (E223A hNET [10]; [13]) was 151.1 ± 14.5 fmol/min/10^6 and the “overall [3H]DA efflux compared to WT hNET” value (N198A hNET [11]) was “significantly reduced”. The “overall [3H]DA efflux compared to WT hNET” value (E223A hNET [12]) was “significantly reduced”.
`NCCc1ccc(O)c(O)c1` [[^3H]DA, 3,4-ethyl-2[N-P^3PH]dihydroxyphenylethylamine] gave a Km (WT hNET [8]) of 0.057 ± 0.008 µM, a Km (N198A hNET [9]) of 0.084 ± 0.02 µM and a Km (E223A hNET [10]) of 0.066 ± 0.011 µM.
